How the values were obtained:
Type in all cases: cell-based
U937 human tumor cells [1] = assay: Cell Death Detection ELISA apoptosis assay, U937
Procedure: 4. Cell Death Detection ELISA Plus assay for apoptosis. The assay is based on a quantitative sandwich-enzyme-immunoassay-principle using mouse monoclonal antibodies directed against DNA and histones, respectively. This allows the specific determination of mono- and oligonucleosomes in the cytoplasmatic fraction of cell lysates. Roche kit, Cat. # 1 774 425, was used for this assay. 0.1 ml of U937 or any other types of cells (2×104 ) and 0.1 ml of tissue culture supernatant or other solutions containing apoptosis inducing agents (e.g. TRAIL) were used for this assay in 48-well plate. After 24 or 48 hrs of incubation at 3 7° C., the cells were spun at 2,000 rpm for 10 minutes. Cell pellet was then resuspended in 200 ul lysis buffer and incubated for 30 minutes at room temperature. The cell lysate was then centrifuged at 2,000 rpm for 10 minutes and diluted at 1:10 with incubation buffer. 20 ul of diluted lysate was added to coated plate (MTP from kit) and 80 ul of the immunoreagent was added to each well. MTP was then covered with adhesive cover foil and incubated under gentle shaking for 2 hours at room temperature. The solution was then removed thoroughly by tapping and subsequently rinsed 3 times with 250 ul incubation buffer. 100 ul ABTS solution was added and incubated on a plate shaker at 250 rpm for 15 minutes. Readings at 405 nm and 490 nm (background) were done on ELISA reader. […]

U937 human tumor cells [2] = assay: Annexin V FACS apoptosis assay, U937
Excerpt: 5. Annexin V apoptosis assay. ApoScreen Annexin V Apoptosis Kit (Cat. No. 10010-02, Southern Biotechnology Assoc. Inc.) was used for this assay. Annexin V detects the change in position of phosphatidy serine (PS) in the cell membrane. In non-apoptotic cells, most phosphatidyl serine molecules are at the inner layer of the plasma membrane. After inducing apoptosis, PS redistributes to the outer layer of the membrane. PS translocation precedes other apoptotic events allowing early detection of apoptosis. 1 ml of U937 cells (2×10^4) or any other types of cells and 1 ml of supernatant or other solutions containing apoptosis inducing agents (e.g. TRAIL) were used for assay in 6-well plate. After 48 hrs of incubation, cells were washed in 2 ml of cold PBS (Phosphate-buffered saline) and resuspended in 100 ul of cold 1× binding buffer. 10 ul of Annexin V-FITC was added to each tube and the tube was gently vortexed and subsequently incubated for 15 minutes in the dark at 4° C. 200 ul of cold 1× binding buffer was added to each tube and 10 ul-of PI was also added to each tube. The staining was then analyzed by flow cytometry.
U937 human tumor cells were grown in the presence or absence of TRAIL proteins produced from conditioned media of transfected 293 cells. The apoptosis of U937 cells induced by conditioned media was measured in this assay. […]

canine cell lines = assay: Cell Death ELISA apoptosis assay, canine cell lines; conditions: 100 ng/ml (FIG. 20B and data not shown)
Procedure: 4. Cell Death Detection ELISA Plus assay for apoptosis. The assay is based on a quantitative sandwich-enzyme-immunoassay-principle using mouse monoclonal antibodies directed against DNA and histones, respectively. This allows the specific determination of mono- and oligonucleosomes in the cytoplasmatic fraction of cell lysates. Roche kit, Cat. # 1 774 425, was used for this assay. 0.1 ml of U937 or any other types of cells (2×104 ) and 0.1 ml of tissue culture supernatant or other solutions containing apoptosis inducing agents (e.g. TRAIL) were used for this assay in 48-well plate. After 24 or 48 hrs of incubation at 3 7° C., the cells were spun at 2,000 rpm for 10 minutes. Cell pellet was then resuspended in 200 ul lysis buffer and incubated for 30 minutes at room temperature. The cell lysate was then centrifuged at 2,000 rpm for 10 minutes and diluted at 1:10 with incubation buffer. 20 ul of diluted lysate was added to coated plate (MTP from kit) and 80 ul of the immunoreagent was added to each well. MTP was then covered with adhesive cover foil and incubated under gentle shaking for 2 hours at room temperature. The solution was then removed thoroughly by tapping and subsequently rinsed 3 times with 250 ul incubation buffer. 100 ul ABTS solution was added and incubated on a plate shaker at 250 rpm for 15 minutes. Readings at 405 nm and 490 nm (background) were done on ELISA reader.

B1: human commercial TRAIL: human TRAIL (Upstate Biotechnology, 100 ng/ml), positive control (protein, UniProt P50591 1-281, looked up)
Tumor necrosis factor ligand …: MAMMEVQGGPSLGQTCVLIVIFTVLLQSLCVAVTYVYFTNELKQMQDKYSKSGIACFLKEDDSYWDPNDEESMNSPCWQVKWQLRQLVRKMILRTSEETISTVQEKQQNISPLVRERGPQRVAAHITGTRGRSNTLSSPNSKNEKALGRKINSWESSRSGHSFLSNLHLRNGELVIHEKGFYYIYSQTYFRFQEEIKENTKNDKQMVQYIYKYTSYPDPILLMKSARNSCWSKDAEYGLYSIYQGGIFELKENDRIFVSVTNEHLIDMDHEASFFGAFLVG
apoptosis specific cell death of U937 cells, times that of control (U937 human tumor cells [1]; conditioned media of transfected 293 cells, two independent experiments (FIG. 9B)): 7 times that of control | induction of apoptosis of U937 cells, in words (U937 human tumor cells [1]; mammalian expressed TRAIL supernatants, commercial human TRAIL and Fas ligand 100 ng/ml (FIGS. 19B, 20B, 21B)): induced potent apoptosis | apoptosis of U937 cells (U937 human tumor cells [2]; conditioned media of transfected 293 cells, background 15-20% (FIG. 9C)): 45% | apoptosis of U937 cells (U937 human tumor cells [2]; experiment with bacteria expressed semi-purified TRAIL-Thio proteins (FIG. 12)): above 85% | effect on canine cell lines, in words (canine cell lines): very minimal

— patent US20040146896A1, “Methods and compositions for diagnosing and treating companion animal cancer” (priority 2002, published 2004)
